Laboratory results as given in US20240252637A1.

Molecular target: CD19 on Namalwa cells (UniProt P15391)
Test: cell-based or functional assay

UniProt P15391, sequence (P15391 20-556 limits assumed): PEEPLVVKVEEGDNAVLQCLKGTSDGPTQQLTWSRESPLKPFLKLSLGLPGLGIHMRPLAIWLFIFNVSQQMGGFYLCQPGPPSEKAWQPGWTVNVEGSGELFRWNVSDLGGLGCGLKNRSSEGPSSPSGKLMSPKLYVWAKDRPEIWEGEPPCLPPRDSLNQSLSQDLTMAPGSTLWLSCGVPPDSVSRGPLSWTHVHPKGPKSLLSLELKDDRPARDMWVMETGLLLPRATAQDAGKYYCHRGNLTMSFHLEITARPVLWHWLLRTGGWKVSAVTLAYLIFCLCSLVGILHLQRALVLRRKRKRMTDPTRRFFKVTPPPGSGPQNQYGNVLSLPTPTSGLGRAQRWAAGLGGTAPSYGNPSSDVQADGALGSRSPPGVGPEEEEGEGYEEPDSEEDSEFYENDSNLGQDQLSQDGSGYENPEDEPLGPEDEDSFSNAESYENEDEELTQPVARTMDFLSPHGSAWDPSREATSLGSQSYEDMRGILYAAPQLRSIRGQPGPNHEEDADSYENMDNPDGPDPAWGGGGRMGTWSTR

For “CD19-CAR (third generation anti-CD19 chimeric antigen receptor, from the lenti-EF1-CD19-3rd-CAR-eGFt plasmid, Creative Biolabs) on the surface of exosomes from CAR-T cells”, the Co-culture killing assay; decrease of CD19+ cells incubated with EXO-CD19-CAR was 60% and the Cytotoxicity assay of EXO-CAR-T against tumor cells (Namalwa); CD19+ cells eliminated at 150 µg/mL EXO-CAR-T was 70%.
